We go through four substances from patent publication US20230183661A1, “BICOMPATIBLE PEPTIDEBIOCOMPATIBLE PEPTIDES FOR INHIBITION OF AGGREGATION OF B-AMYLOID PROTEIN” (Catholic University Industry Academic Cooperation Foundation, priority 2017, published 2023).

Experiment [1] concerns the target β-amyloid (Aβ) overexpressed in nerve cells (UniProt P05067). The experiment can be described thus: Co-IP from N2a cells, relative score.
Experiment [2] has the same target. Nature of the experiment: cell-based or functional assay.

Sequence of Peptide 5 (β 1-5 fragment of SOD1), NABi (Natural Amyloid β Binder and Amyloid β aggregation inhibitor) (P00441 2-91): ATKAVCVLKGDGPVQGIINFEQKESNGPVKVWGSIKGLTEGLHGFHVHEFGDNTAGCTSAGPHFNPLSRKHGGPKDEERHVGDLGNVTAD

In experiment [1], “Peptide 2 (β 2-7/T fragment of SOD1) (from UniProt P00441 16-145)” gave a Binding strength with β-amyloid of 3.5.

Turning to “Peptide 3 (β 4-6 fragment of SOD1) (from UniProt P00441 40-114)”, in experiment [1], the Binding strength with β-amyloid is 0. In turn, “Peptide 5 (β 1-5 fragment of SOD1), NABi (Natural Amyloid β Binder and Amyloid β aggregation inhibitor)” came in with a Binding strength with β-amyloid in experiment [1] of 1. Further, in experiment [2], the fluorescence recovery after photobleaching (FRAP) of Aβ in N2a cells, within 20 seconds is 50% and the fluorescence recovery after photobleaching (FRAP) of Aβ in N2a cells, within 90 seconds stood at 75%. In experiment [1], “Peptide 6 (β 5-8 fragment of SOD1) (from UniProt P00441 81-154)” gave a Binding strength with β-amyloid of 0.
